For one molecule, Kd results are on record in publication PMC3214066.

The term Kd denotes the concentration at which binding is half-saturated.

In the experiment the target is Collagen S (soluble, type I, from calf skin) (calf) (UniProt P02453). As to the kind of experiment: radioligand binding; collagen I monomers (5 µg/mL in 1% acetic acid + 1% NaCl) coated on 96-well plates, blocked with 1% BSA; 125I-labelled A1M (50×10^3 cpm) with increasing unlabelled A1M in PBS + 0.05% Tween, overnight at 4°C; Scatchard analysis.
Chain of UniProt P02453 (P02453 162-1217, chain 1 of 2): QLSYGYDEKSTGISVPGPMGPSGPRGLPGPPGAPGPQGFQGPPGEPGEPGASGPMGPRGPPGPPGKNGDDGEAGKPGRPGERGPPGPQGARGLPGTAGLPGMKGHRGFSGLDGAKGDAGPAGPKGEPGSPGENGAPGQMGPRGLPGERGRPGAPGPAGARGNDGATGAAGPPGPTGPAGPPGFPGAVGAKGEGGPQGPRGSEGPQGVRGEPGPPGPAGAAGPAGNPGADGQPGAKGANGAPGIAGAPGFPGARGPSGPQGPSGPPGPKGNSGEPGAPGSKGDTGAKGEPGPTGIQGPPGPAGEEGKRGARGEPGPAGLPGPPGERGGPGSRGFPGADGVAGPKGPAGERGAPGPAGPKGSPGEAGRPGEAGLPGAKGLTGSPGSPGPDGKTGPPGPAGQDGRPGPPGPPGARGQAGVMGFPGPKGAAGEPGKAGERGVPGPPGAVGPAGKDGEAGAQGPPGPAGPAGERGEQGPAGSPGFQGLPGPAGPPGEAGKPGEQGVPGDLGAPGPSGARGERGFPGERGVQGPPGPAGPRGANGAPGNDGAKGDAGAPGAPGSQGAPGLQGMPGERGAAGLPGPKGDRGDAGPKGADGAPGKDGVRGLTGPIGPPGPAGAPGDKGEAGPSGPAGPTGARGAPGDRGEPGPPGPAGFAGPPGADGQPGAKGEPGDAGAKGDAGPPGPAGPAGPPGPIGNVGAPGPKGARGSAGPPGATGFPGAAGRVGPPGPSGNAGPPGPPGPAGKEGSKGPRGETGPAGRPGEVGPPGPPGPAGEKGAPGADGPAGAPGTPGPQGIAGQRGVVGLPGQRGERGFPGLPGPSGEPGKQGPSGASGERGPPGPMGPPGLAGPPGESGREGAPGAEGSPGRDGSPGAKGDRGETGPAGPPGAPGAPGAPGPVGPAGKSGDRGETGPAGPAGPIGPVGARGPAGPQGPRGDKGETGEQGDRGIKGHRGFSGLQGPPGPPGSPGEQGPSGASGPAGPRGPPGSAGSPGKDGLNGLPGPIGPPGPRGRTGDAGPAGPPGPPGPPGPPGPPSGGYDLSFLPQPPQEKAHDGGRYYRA
Chain of UniProt P02453 (P02465 80-1117, chain 2 of 2, further chain): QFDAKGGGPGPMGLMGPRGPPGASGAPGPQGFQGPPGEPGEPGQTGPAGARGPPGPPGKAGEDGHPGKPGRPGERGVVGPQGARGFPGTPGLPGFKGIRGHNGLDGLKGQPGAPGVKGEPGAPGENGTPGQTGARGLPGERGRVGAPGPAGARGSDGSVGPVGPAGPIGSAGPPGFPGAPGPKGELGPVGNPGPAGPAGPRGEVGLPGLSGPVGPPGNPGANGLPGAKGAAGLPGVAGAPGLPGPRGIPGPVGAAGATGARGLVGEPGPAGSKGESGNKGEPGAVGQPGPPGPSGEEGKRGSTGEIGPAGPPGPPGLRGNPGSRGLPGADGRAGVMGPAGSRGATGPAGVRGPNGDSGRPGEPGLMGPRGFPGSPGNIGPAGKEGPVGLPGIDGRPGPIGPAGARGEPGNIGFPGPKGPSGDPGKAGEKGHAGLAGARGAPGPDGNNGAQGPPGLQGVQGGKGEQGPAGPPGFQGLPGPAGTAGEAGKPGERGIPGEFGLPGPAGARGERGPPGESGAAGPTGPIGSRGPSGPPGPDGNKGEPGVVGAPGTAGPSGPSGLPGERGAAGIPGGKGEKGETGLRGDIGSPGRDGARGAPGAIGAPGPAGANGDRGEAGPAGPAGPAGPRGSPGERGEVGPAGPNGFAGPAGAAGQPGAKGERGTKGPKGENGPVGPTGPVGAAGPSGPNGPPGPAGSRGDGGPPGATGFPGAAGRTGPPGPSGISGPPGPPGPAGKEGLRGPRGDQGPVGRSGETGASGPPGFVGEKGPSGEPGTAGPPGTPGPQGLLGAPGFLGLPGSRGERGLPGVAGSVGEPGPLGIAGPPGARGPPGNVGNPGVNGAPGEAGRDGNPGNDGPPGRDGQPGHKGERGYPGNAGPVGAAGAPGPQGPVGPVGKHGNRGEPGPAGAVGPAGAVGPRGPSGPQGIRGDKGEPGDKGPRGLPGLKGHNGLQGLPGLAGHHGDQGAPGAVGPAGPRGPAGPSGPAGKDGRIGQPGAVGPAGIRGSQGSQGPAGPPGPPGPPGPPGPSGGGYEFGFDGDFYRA

B1: Recombinant human α1-microglobulin (A1M) (natural protein)
chain: GPVPTPPDNIQVQENFNISRIYGKWYNLAIGSTCPWLKKIMDRMTVSTLVLGEGATEAEISMTSTRWRKGVCEETSGAYEKTDTDGKFLYHKSKWNITMESYVVHTNYDEYAIFLTKKFSRHHGPTITAKLYGRAPQLRETLLQDFRVVAQGVGIPEDSIFTMADRGECVPGEQEPEPILIPRV
modifications: 125I label (chloramine T method) on the tracer in the solid phase binding assay; colloidal gold label (4-5 nm) in the electron microscopy binding experiment
For B1, the Kd stood at 960 nM.
